Measurements from US20230174610A1 (Harvard, published 2023).

T1: RXFP1 receptor expressed by transient transfection in HEK293T cells (UniProt Q9HBX9 1-757, limits assumed)
T1 sequence (looked up): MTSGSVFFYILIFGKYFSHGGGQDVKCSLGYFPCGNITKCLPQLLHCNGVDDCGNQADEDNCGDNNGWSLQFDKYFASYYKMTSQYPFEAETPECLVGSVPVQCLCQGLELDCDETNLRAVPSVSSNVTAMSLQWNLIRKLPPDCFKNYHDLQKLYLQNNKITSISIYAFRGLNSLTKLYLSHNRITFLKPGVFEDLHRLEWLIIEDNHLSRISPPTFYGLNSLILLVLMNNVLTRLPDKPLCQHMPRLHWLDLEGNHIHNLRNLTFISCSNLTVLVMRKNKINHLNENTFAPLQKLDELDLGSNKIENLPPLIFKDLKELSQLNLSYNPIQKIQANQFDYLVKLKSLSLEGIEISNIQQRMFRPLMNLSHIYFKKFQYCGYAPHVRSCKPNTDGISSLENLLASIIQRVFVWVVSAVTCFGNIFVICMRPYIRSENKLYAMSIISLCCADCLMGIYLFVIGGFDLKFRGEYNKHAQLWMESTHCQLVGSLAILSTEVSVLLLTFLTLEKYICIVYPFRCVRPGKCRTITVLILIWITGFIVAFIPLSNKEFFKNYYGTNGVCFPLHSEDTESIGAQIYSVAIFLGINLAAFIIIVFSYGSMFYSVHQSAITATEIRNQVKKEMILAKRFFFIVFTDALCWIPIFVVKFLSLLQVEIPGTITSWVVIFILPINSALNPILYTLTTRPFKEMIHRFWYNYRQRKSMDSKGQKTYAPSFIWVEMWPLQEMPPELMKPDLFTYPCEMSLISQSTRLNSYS

B1: SE001, His-tag single-chain relaxin (ligand)
chain: HHHHHHDSWMEEVIKLCGRELVRAQIAICGMSTWSDAASSHSHSSARQLYSALANKCCHVGCTKRSLARFC
B2: SE005, Truncated His-tag single-chain relaxin (ligand)
chain: HHHHHHEEVIKLCGRELVRAQIAICGMSTWSDAASSHSHSSARQLYSALANKCCHVGCTKRSLARFC
B3: SE401, Single-chain relaxin with the combined substitutions of SE201, 204-207, fused to the C-terminus of mouse serum albumin with an N-terminal 8X His-tag (other)
chain: HHHHHHHHRGVFRREAHKSEIAHRYNDLGEQHFKGLVLIAFSQYLQKCSYDEHAKLVQEVTDFAKTCVADESAANCDKSLHTLFGDKLCAIPNLRENYGELADCCTKQEPERNECFLQHKDDNPSLPPFERPEAEAMCTSFKENPTTFMGHYLHEVARRHPYFYAPELLYYAEQYNEILTQCCAEADKESCLTPKLDGVKEKALVSSVRQRMKCSSMQKFGERAFKAWAVARLSQTFPNADFAEITKLATDLTKVNKECCHGDLLECADDRAELAKYMCENQATISSKLQTCCDKPLLKKAHCLSEVEHDTMPADLPAIAADFVEDQEVCKNYAEAKDVFLGTFLYEYSRRHPDYSVSLLLRLAKKYEATLEKCCAEANPPACYGTVLAEFQPLVEEPKNLVKTNCDLYEKLGEYGFQNAILVRYTQKAPQVSTPTLVEAARNLGRVGTKCCTLPEDQRLPCVEDYLSAILNRVCLLHEKTPVSEHVTKCCSGSLVERRPCFSALTVDETYVPKEFKAETFTFHSDICTLPEKEKQIKKQTALAELVKHKPKATAEQLKTVMDDFAQFLDTCCKAADKDTCFSTEGPNLVTRCKDALAGGSDSWKEEVIKLCGRELVRAQIAICGKSTASDAAGANANAGARQLYSALANKCCHVGCTKRSLARFC
B4: SE004, Protein C-tag and His-tag single-chain relaxin (ligand)
chain: EDQVDPRLIDGKGSHHHHHHDSWMEEVIKLCGRELVRAQIAICGMSTWSDAASSHSHSSARQLYSALANKCCHVGCTKRSLARFC

target: T1, RXFP1 receptor expressed by transient …; assay: cell-based or functional assay

Emax (Native two-chain relaxin = 100% Emax) [%] | EC50 [nM] | Binder
118 |  | B1
112 | 0.485 | B2
121 | 52.6 | B3
117 | 1.5 | B4
